For one data set, the system named is MDA-MB-231 cells. The data set can be described thus: MTT proliferation assay, MDA-MB-231.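 Note: human cancer cells kept at 37 °C in humidified 5% CO2, with treated groups compared against a vehicle control group.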 It is filed as cell-based, human. In general terms: Tetrazolium assays rely on reduction of a dye to a coloured formazan, in cell work by metabolically active cells.
The next data set has as its system PANC-1 cells. The data set is described as follows: MTT proliferation assay, PANC-1. It is filed as cell-based, human. To be noted: for Mean Absorbance (570 nM) ± S.E.: single experiments 1-3.
The target in a further data set is T1, TNF-alpha (Homo sapiens, UniProt P01375).
T1 construct: host or cells: added to U937 cells
The data set can be described thus: Inhibition of TNF-alpha cytotoxicity in U937 cells. Format: cell-based. Particulars: constant dose of TNF-alpha at EC50; for inhibition of killing of U937 by TNF-alpha (in words): FIG. 14.

Several values for one entry are separate records, joined by “and”; a condition that tells them apart may be missing. Equal values may be shown once.

T1 sequence (P01375 77-233 limits assumed): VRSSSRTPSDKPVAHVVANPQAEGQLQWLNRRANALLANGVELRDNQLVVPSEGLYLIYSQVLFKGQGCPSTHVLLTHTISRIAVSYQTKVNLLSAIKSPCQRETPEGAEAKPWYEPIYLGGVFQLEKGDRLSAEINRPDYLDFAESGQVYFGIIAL

B1: B.VHH14: anti-STAT3 single-domain antibody VHH14, SEQ ID NO. 4 (protein)
VHH: QVQLVESGGGSVQAGGSLRLSCVASTYTGCMGWFRQAPGKEREGVAALSSRGFAGHYTDSVKGRFSISRDYVKNAVYLQMNTVKPEDAAMYYCAAREGWECGETWLDRTAGGHTYWGQGTLVTVSS
modifications: camelid
In the case of B1, the “% Inhibition of cell proliferation” value with MDA-MB-231 cells (3 days of treatment, 10.0 μg/ml) was found to be 23.1%; in the data set on MDA-MB-231 cells (3 days of treatment, 100.0 μg/ml), 57.0%; with MDA-MB-231 cells (5 days of treatment, 0.5 μg/ml), 0%; in the data set with MDA-MB-231 cells (5 days of treatment, 1.0 μg/ml), 0%; in the data set with MDA-MB-231 cells (5 days of treatment, 10.0 μg/ml), 5.5%; in the data set on MDA-MB-231 cells (5 days of treatment, 100.0 μg/ml), 18.9%. In addition, the “Mean Absorbance (570 nM) ± S.E.” value in the data set on MDA-MB-231 cells (Day 3 post treatment, 0.5 μg/ml) came out at 0.666 ± 0.022; with MDA-MB-231 cells (Day 3 post treatment, 1.0 μg/ml), 0.644 ± 0.045; with MDA-MB-231 cells (Day 3 post treatment, 10.0 μg/ml) it was 0.456 ± 0.048; with MDA-MB-231 cells (Day 3 post treatment, 100 μg/ml), 0.255 ± 0.005; in the data set on MDA-MB-231 cells (Day 5 post treatment, 0.5 μg/ml) it was 0.733 ± 0.038; with MDA-MB-231 cells (Day 5 post treatment, 1.0 μg/ml), 0.794 ± 0.023. Moreover, the “Mean Absorbance (570 nM) ± S.E.” value in the data set with MDA-MB-231 cells (Day 5 post treatment, 10.0 μg/ml) is 0.640 ± 0.011; with MDA-MB-231 cells (Day 5 post treatment, 100 μg/ml), 0.549 ± 0.023; in the data set with MDA-MB-231 cells (Table 6, Day 3, 10.0 μg/ml, single experiments 1-4) it was 0.456 ± 0.048 and 0.499 ± 0.018 and 0.502 ± 0.048 and 0.559 ± 0.041; in the data set on MDA-MB-231 cells (Table 6, Day 3, 100 μg/ml, single experiments 1-4), 0.255 ± 0.005 and 0.357 ± 0.019 and 0.308 ± 0.021 and 0.287 ± 0.021. For the same molecule, the “Mean Absorbance (570 nM) ± S.E., Overall Mean” value in the data set on MDA-MB-231 cells (Table 6, Day 3, 10.0 μg/ml) is 0.504 ± 0.021; in the data set with MDA-MB-231 cells (Table 6, Day 3, 100 μg/ml) it was 0.302 ± 0.043; in the data set with MDA-MB-231 cells (Table 7, Day 5, 10.0 μg/ml), 0.688 ± 0.131; with MDA-MB-231 cells (Table 7, Day 5, 100 μg/ml) it was 0.475 ± 0.0690. The “Overall Average % Inhibition” value with MDA-MB-231 cells (post 3 days, 10.0 μg/ml) was 26.2%; in the data set with MDA-MB-231 cells (post 3 days, 100 μg/ml), 55.7%; with MDA-MB-231 cells (post 5 days, 10.0 μg/ml), 14.9%; in the data set on MDA-MB-231 cells (post 5 days, 100 μg/ml), 38.6%. The “Mean Growth Inhibition” value was 23.1% and 20.0% and 38.5% and 23.3% with MDA-MB-231 cells (post 3 days, 10.0 μg/ml, single experiments 1-4); 57.0% and 42.8% and 62.3% and 60.6% in the data set with MDA-MB-231 cells (post 3 days, 100 μg/ml, single experiments 1-4).

B2: H.VHH14: anti-STAT3 sdAb VHH14, SEQ ID NO. 4 (protein)
VHH: B1 VHH
modifications: camelid
As to B2, the “Mean Absorbance (570 nM) ± S.E., Overall Mean” value with PANC-1 cells (Day 3, 10.0 μg/ml) is recorded as 1.089 ± 0.085; in the data set on PANC-1 cells (Day 3, 100 μg/ml), 0.906 ± 0.054; in the data set with PANC-1 cells (Day 5, 10.0 μg/ml) it was 1.368 ± 0.247; in the data set on PANC-1 cells (Day 5, 100 μg/ml), 0.754 ± 0.333. Also, the “Mean Absorbance (570 nM) ± S.E.” value with PANC-1 cells (Day 3, 10.0 μg/ml) was 0.920 ± 0.133 and 1.183 ± 0.114 and 1.163 ± 0.044; in the data set on PANC-1 cells (Day 3, 100 μg/ml), 0.808 ± 0.239 and 0.993 ± 0.088 and 0.916 ± 0.088; with PANC-1 cells (Day 5, 10.0 μg/ml) it was 1.859 ± 0.033 and 1.165 ± 0.015 and 1.081 ± 0.103.

B3: anti-TNF-alpha VHH62: anti-TNF-alpha sdAb, SEQ ID NO. 47 (protein)
VHH: QVQLVESGGGPVQAGETLRLSCTASGFTFAEADMGWYRQAPGHECELVSTITTEGITSEASSYYADSVRGRFTISRDNAKNMVYLQMNSLKPEDTAVYYCAPDPYAYSTYSDYCSWAQGTQGTLVTVSS
modifications: camelid
B3: in the data set with TNF-alpha, the “IC50 (inhibition of TNF-alpha cytotoxicity against U937)” value is “approximately 713.6 ug/ml” and the “inhibition of killing of U937 by TNF-alpha (in words)” value was “inhibit killing of U937 by TNF-alpha”.

B4: anti-TNF-alpha VHH69: anti-TNF-alpha sdAb, SEQ ID NO. 46 (protein)
VHH: EVQLVESGGGSVLAGGSLRLSCVASGFTSRYNYMAWFRQAPGKEREGVATIGTASGSADYYGSVKDRFTISQDNAKNTVYLQMNSLKPEDTAMYYCAARTYGTISLTPSDYRYWGQGTLVTVSS
modifications: camelid
For the molecule B4, in the data set with TNF-alpha, the “IC50 (inhibition of TNF-alpha cytotoxicity against U937)” value is recorded as “greater than 208.055 ug/ml” and the “inhibition of killing of U937 by TNF-alpha (in words)” value is recorded as “inhibit killing of U937 by TNF-alpha”.

Values taken from patent publication US20160115247A1, “SINGLE DOMAIN ANTIBODIES DIRECTED AGAINST INTRACELLULAR ANTIGENS” (SINGH BIOTECHNOLOGY, LLC, priority 2014, published 2016).
